{"source": "paper PMC9524465", "about": "(ACS catalysis, 2021)", "target": "the molecule itself", "experiment": "crystal structure", "data": [{"protein": "GIAAIKQEHAAIKQEIAAIKQEIAAIKWEG (not fully specified; acetylated N-terminal Gly (Ac-); amidated C-terminal Gly (-CONH2))", "note": "[[3SCC-(I9H)3] artificial copper peptide (ArCuP), de novo designed trimeric coiled coil peptide]", "values": [{"measurement": "stoichiometry N", "value": 3}]}]}
